Source: article PMC2275093

B1: 10-bp duplex (dsDNA)
DNA 1: GCGAATTCGC
DNA 2: GCGAATTCGC
B2: poly(GACT)15 60 nt ssDNA (ssDNA)
DNA: GACTGACTGACTGACTGACTGACTGACTGACTGACTGACTGACTGACTGACTGACTGACT

Tests used:
Cren7 (recombinant) [1] = target: T1, Cren7 (recombinant) (Sulfolobus solfataricus P2, UniProt Q97ZE3 1-60); experiment: NMR 1H-15N HSQC titration
T1 sequence: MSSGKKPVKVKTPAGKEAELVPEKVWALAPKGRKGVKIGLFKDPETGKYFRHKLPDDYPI

Cren7 (recombinant) [2] = target: T1, Cren7 (recombinant); experiment: EMSA

Binder | binding result (Cren7 (recombinant) [1]) | Kd (Cren7 (recombinant) [2])
B1 | binds | –
B2 | – | ~2.5 µM
